# Source: the nanobody polyreactivity screen of Harvey et al. (2022)
# Experiment: yeast display, Sf9 membrane polyspecificity reagent, FACS + sequencing; frameworks hold sequencing errors
# Summary of the method: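 A nanobody's polyreactivity label depends on the gate it was sorted from. Yeast display cells were stained with 10% biotinylated, detergent-solubilized Sf9 membrane reagent for 1 hour at 4 °C, enriched on streptavidin microbeads and sorted by FACS. The low and high (top ~1%) gates were set on anti-HA fluorescence for expression and streptavidin fluorescence for reagent binding.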
row,Sequence,polyreactivity (PSR sort gate)
1,QVQLVESGGGLVQAGGSLRLSCAASGRILSLYAMGWNRQAPGKERELVASINWSDGSTYYADSVKGRFTISRDNAKNTVYLQMNSLKPEDTAVYYCTVDVRSYVAGYDYWGQGTQVTVSS,low polyreactivity
2,QVQLVESGGGLVQAGGSLRLSCAASGSTFDWYAMGWYRQATGKETELVAAISWSDTSTYYADSVKGRFTISRDNAKNTVYLKMNSLKPEDTAVYYCNDEALYYYDSYDYWGQGTQVTVSS,high polyreactivity
3,QVQLVESGGGLVQAGGSLRLICAASGRTFQYYAMGWYRQARGKERELVAAISWSGGSTYYADSVKGRFTISRDNAKNTVYLQMNSLKAEDNAVYYFAASFRGQIVGYWGQGTQVTVSS,high polyreactivity
4,QVQLVESGGGLVQAGGSLRLSCAASGSIFYWYAMGWYSQAPGKERELVAAIDISDDTYYADSVKGRFTISRDNAKNTVYLQMNSLKPEDTAGYYCAARTTRWFYEYDWGQGSQVTVSS,high polyreactivity
5,QVQLVESGGGLVQAGGSLSLSCAASGSISDVYPMGGYRQAPRKERELVAAITSGASTYYADSVKGRFTISRDNAKNTVYLQLNSLKTEDTAVYYCAAGYSDWYYADYNSWGQGTQVTVSS,low polyreactivity
6,QVQLVESGGGLVQAGGSLRLSCAASGRTFFRNAMGWYRQAPAKERELVAGISRSGGSTYYADSVKGRFTISRDNAQNTFSLEMNSLKPEDSAVYYFAAALYPYPGYEYWGQGTQVTVSS,high polyreactivity
7,QVQLVESGGGLVQAGGSLRLSCAASGSTFPRYAMAWYRQAPGKERELVAAISSSGRTYYADSVKGRFTISRDNAKNTFYLQMNSLKPEDTAVYYCNAPVARGEASYYWGQGTQVTVSS,high polyreactivity
8,QVQLVESGGGLVQAGGSLRISCAASVSIFARYAMGWYRQAPGQERELVAAISSRGGSTYYADSVKGRFTISRDNAKNTVYLQMNSLKPEDTAVYYCNKGYLVRPGVYWGQGTQVTVSS,high polyreactivity
9,QGQLVESGGGLVQAGGSLRLSCPASGRTFYGYAMGWYRQAPGKERELVAAITSSGGSTYYADSVKGRFTISRDHAKNTVYLQMNSLIPEDTAVYYCAAPSSRGQGRNFDYWGQGSQVTVSS,high polyreactivity
10,HVQLVEAGGGLVQAGGSLRVSCAASGFTIHYNAMGWYRQAPGKGWELVATISKSAGITSYADSVKGRFTISRDNATNTVYFPMNSLKPEDTAVYYCAADKSYRRVYYWGQGSQVTVSS,low polyreactivity
11,QVQLVESGGGLFQAGGSLRLSCAASGSTLAGYTMGWYRQAPGKERELVASISFTGGSTYYADSVKGRFTISRDNAKNTVYLQMNSLKPEDTAVYYCAAGTWQYYFLYDTYRRYYYWGQGTQVTGSS,high polyreactivity
12,QVQLVESGGGLVQAGGSLRLSCAASGRTFRYNAMGWYRQAPGKERELVASISWRGGSTYYADSVKGRFTISRDNAKNTVYLPMNSLKPEDTAVYYCAADAAHSEYDDWGQGTQVTVSS,high polyreactivity
13,QVQLVDSRRGLVQAGGSLRLSCAASGRIFGYNAMGWYREAPGKVRELVAAISSGGGTNYADSVKGRFTISRDNAKNPVYLQMHSLKPEDTAVYYCAVRRRRYHTYYRGYDYWGQGTQVTVSS,low polyreactivity
14,QVQLVESAGVLVQAGGILRLSFAASGINFPYYAMGWYRKAPGKERELVAAISSSGGSSYYADSVKGRFTISRDNAKNTVYLKLNILKPEDTAVYYCAAHRYINYEYWGQGTQLTVSS,high polyreactivity
15,QVQLVESGGGLVQAGGSLRLSCAASGLILYSYAMGWYRQAPGKERELVADISSGGITNYADSVKGRFTISRDNAKNTVYLQMNSLKPEDTAVYYCAADTRTSYYNDDYDYWGQGTQVTVSS,low polyreactivity
16,QVQLVESGGRLVQAGGSLRLTCAASGSTFPKYAMGWYRQAPGKERELVASISVTTGSTYYADSVKGRFTISRDNAKNTVYLQMNSLKPVDTAVYYCAKRTYSRKFRGAYNYWGQGTQVTVSS,high polyreactivity
17,QFQLEESGRGLVQAGGSLRLSCAASGRIFRYYAMGWYRQAPGKERELVAGISWRGSSTYYADSVKGRFTISRDNAKNTVYLQMNSLKPEDTAVYYCAARKASGRFGYWGQGTQVTVSS,high polyreactivity
18,QVQLVESGGGLVQAGGSLRLSCAASGRIFIRAMGWYRQAPGKERELVAGITNGGITYYADSVKGRFTISRDNAKNTVYLQMISLKPEDTAVYFCNDRSSSVDYNYDYWGQGTQVTVSS,low polyreactivity
19,QVQLVESGGGLVQAGGILRLSCAASGFTSWDNDMGWYRQAPGKERELVAAISRGGSTNYADSVKGRFTLSRDNAKNTVYLQMNSLKPEDPAVYYCATAAVTPVWYDYWGQGTQVTVSS,low polyreactivity
20,QVQLVESGGGLVQAGASLRLSCAASGYIFVRYAMGWYRQAPGKEREFVAAISSSGGSTRYADSVKVRFTISRDNAKNTVYLQMNSLKPEDTAVYYCAATRVARHGSPMYYWGQGTKVTVSS,high polyreactivity
21,QVQLVESGGGLVQAGGSLRLSCAASGSIFAAYTMGWYRQAPGKERELVATISSGGSTYYADSVKGRFTISRDNAKNTVYLQMNSLKPEDTAVYYCAAVAYTYTEYEYWGQGTQVTVSS,low polyreactivity

row,Sequence,polyreactivity (PSR sort gate)
1,QVQLVESGGGLVQAGASLRLSCAASGRTFGYYAMGWYRQAPGKERELVATISRRGGRTYYADSVKGRFTISRDNAKNTVYLQMNSLKPEDTAVYYCNKYLASYSYSDLVYWGQGTQVTVSS,high polyreactivity
2,QVQLVESGGGLVQAGGSLRLSCAASGIIFYYYGMGWSRQAPGKEREFVAAISTSGGNTYYADSVKGRFTISRDNAKNTVYLQMNSLKPEDTAVYYCAADDWPWGDAGVDYWGQGTQVTVSS,low polyreactivity
3,QVQLVESGGGLVQAGGSLRLSCAASGSTFPYNAMGWYRQAPGKERELVAAITGRGGSTYYADSVKGRFTISRDNAKNTVYLQMNSLKPEDTAVYYCAARYLYLLYYWGQGTQVTVSS,high polyreactivity
4,QVQLVESGGGLVQAGGSLRLSCAASGNTFRIYTMVWYRQAPGKERELVATITRRGGSTYYADSVKGRFTISRDNAMNTVYLQMNSLKPEDTVVYYCAARVRGTGVYGGYNYWGQGTLVTVSS,high polyreactivity
5,QVQLVESGGGLVQAGGSLRLICAASGRIFKWYVMGWYRQAPGKERELVAAISRSGDSTNYADSVKGRFTISRDNAKNTVYLQMNSLKPEDTAVYYCAVGYRYLKWVDYWGQGTQVTVSS,high polyreactivity
6,QVQLVESGGGLVQAGGSLRLSCAASGFTFGSNAMGWYRQAPGKEREFVAAISGSGDRTYYADSVKGRFTISRDNAKNTVYLQMNSLKPEDTAVYYCATSVRQNYFYSYDDWGQGTQVTVSS,high polyreactivity
7,QVQLVESGGGLVQAGGSLRLSCAASGFTFDTYGMGWYRQAPGKERELVAAITGDGDSTYYADSVKGRFTISRDNAKNTVYLQMNSLKPEDTAVYYCATDQDVVGYWTIYYYAWGYEYCGQGTQVTVSS,low polyreactivity
8,QVQLVESGGGLVQAGGSLRLSCAASGYIFGSYAMGWYSQAPGKERELVATISYRAGRTYYADSVKGRFTISRDNAKNTVDLQMNSLTPEDTAVYYCAADLVIYLEYDYWGQGTQVTVSS,low polyreactivity
9,QVHLVESGGGLVQAGGSLRLRCAASGSTFGYYAMGWYRQAPGKERELVAAIRGSVTRTYYADSVKGRFTISRDNAKNTVYLEMNSLKPEDTAVYYCAAGSRLGWGSEYWGQGTQVTVSS,high polyreactivity
10,QVQLVESGGGLVQAGGSLRLICAASGSIFYRYTMGWYRQAPGKERELVAAISSRGGSTYYADSVKGRFTISRDNAKNTVYLQMNSLKPEYTAVYYCAARFSYWAPSKGYGYWGQGTQVTVSS,high polyreactivity
11,QVQLVESGGGIVQAGGSLRLSCAASGRIFGRYAMGWYIQAPGKERELVAAISRSGGSTYYADSVKGRFTISRDNAKYTVYLQMNSLKPEDTAVYYCNAKYVRAGDTYDYWGQGTQVTVSS,high polyreactivity
12,QVQLVESGGGLVQAGGSLRLSCAASGSIFGRNDMGWYRQAAGKERELVAAISKRGGRTYYADSVKGRFTISRDNAKNTVYLQMNSLKPEDTAVYYCAADQPTLAYPGGYSAGMDYWGQGTQVTVSS,high polyreactivity
13,QVQLVESGGGLVQAGGSHRLSCAASGSIFYQYAMGSYRQAPGKERELVAAITWIGSTYYADSVKGRFTISRDNAKNTVYLQMNSLKPEDTAVYYCNTDPYVLQKYDYWGQGTQVTVSS,low polyreactivity
14,QVQLVESGGGLVQAGGSLRFSCAACGSIFEFYALGWSSQAPGKERELVAAITWDDGSTYYADSVKGRFTISRDNATNTVYLQMNSLTPEDTAVYYCAADTYITSDLYVYAYYYWGQGTQVTVSS,low polyreactivity
15,QVQLVESGGGLVQAGGSLRLTCAASGRIFPRNTMGWYRQAPGKERELVAAISVSGGSTYYADSVKGRFTNSRDNAKNTVYLQMNSLKPEDTAVYYWAARSARLEYYYWGQGTQVTVSS,high polyreactivity
16,QVQLVESGGGLVQAGGSLRLSCAASGSIIQGYAMGWYRQEPGKERELVAAITGDGTTNYADSVKGRFTISRDNAKNNVYLQMNSLKPEDTAVYYCSATGLFNKFHGYGYLGQGTQVTVSS,low polyreactivity
17,QVQLQESGGVLVQAGGSLRLSCAASGSIFVSVTMGWYRQAPGKERELVASIGRGSTTNHADSVKGRFTISRDNAKNIVYLLMNSLKPEDTAVYYCAALESYGKYHGYWGQGTQVTVSS,low polyreactivity
18,QVQLVESGGGLVQAGGSLRLSCAASGRTFGLYAMGWYRQAPGKERELVAAISWGGGRTYYADSVKGRFTISRDNAKNTVYLLMNSLKPEDTAVYYCNALYATYYLGYDYWGQGTQVTVSS,high polyreactivity
19,QVQLVESGGGLVQAGGSLRLSCAASGRTFHHNAMGWYRQAPGKERELVATITAGSGSTYYADSVKGRFTISRDNAKNTVYLQMNSQKPEDTAVYYCAARVGWNKRRYDYWGQCTQVTVSS,low polyreactivity
20,QVQLVESGGGLVQAVGSLRLSCAASGSTFWFNAMGWYRQAPGKERELVAAIPSRGGYTYYADSVKGRFTISRDNAKNTVYLQMNSLKPEDTAVYYCAADYRYSSRKVFHFDYWGQGTQVTVSS,low polyreactivity
